1 molecule from paper PMC5080453 (2016) can be followed below.

The target in the test is BMPER_N (Homo sapiens (Human), UniProt Q8N8U9). The test is described as follows: SPR (Tsg on chip); one cell MST.
BMPER_N, sequence (Q8N8U9 40-369): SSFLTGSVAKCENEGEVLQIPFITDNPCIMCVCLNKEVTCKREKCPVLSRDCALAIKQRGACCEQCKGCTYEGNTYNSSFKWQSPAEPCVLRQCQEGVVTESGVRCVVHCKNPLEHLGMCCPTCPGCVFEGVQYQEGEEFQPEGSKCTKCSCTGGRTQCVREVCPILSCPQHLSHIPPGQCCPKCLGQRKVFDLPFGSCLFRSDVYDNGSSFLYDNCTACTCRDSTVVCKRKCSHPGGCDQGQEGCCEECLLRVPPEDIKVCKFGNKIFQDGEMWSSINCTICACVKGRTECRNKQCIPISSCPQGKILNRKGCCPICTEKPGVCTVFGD

B1: TWSG1 (protein)
chain: CNKALCASDVSKCLIQELCQCRPGEGNCSCCKECMLCLGALWDECCDCVGMCNPRNYSDTPPTSKSTVEELHEPIPSLFRALTEGDTQLNWNIVSFPVAEELSHHENLVSFLETVNQPHHQNVSVPSNNVHAPYSSDKEHMCTVVYFDDCMSIHQCKISCESMGASKYRWFHNACCECIGPECIDYGSKTVKCMNCMF
The Kd is the equilibrium constant for the complex coming apart. B1: the Kd came out at 0.55 nM. In other words, the sub-nanomolar range.
